# Values of other authors in patent US20070212358A1, “Compositions and Methods for Effecting Controlled Posterior Vitreous Detachment” (priority 2006, published 2007).
# B1: plasmin (protein, UniProt P00747 20-580; P00747 581-810, looked up)
# Plasmin heavy chain A: EPLDDYVNTQGASLFSVTKKQLGAGSIEECAAKCEEDEEFTCRAFQYHSKEQQCVIMAENRKSSIIIRMRDVVLFEKKVYLSECKTGNGKNYRGTMSKTKNGITCQKWSSTSPHRPRFSPATHPSEGLEENYCRNPDNDPQGPWCYTTDPEKRYDYCDILECEEECMHCSGENYDGKISKTMSGLECQAWDSQSPHAHGYIPSKFPNKNLKKNYCRNPDRELRPWCFTTDPNKRWELCDIPRCTTPPPSSGPTYQCLKGTGENYRGNVAVTVSGHTCQHWSAQTPHTHNRTPENFPCKNLDENYCRNPDGKRAPWCHTTNSQVRWEYCKIPSCDSSPVSTEQLAPTAPPELTPVVQDCYHGDGQSYRGTSSTTTTGKKCQSWSSMTPHRHQKTPENYPNAGLTMNYCRNPDADKGPWCFTTDPSVRWEYCNLKKCSGTEASVVAPPPVVLLPDVETPSEEDCMFGNGKGYRGKRATTVTGTPCQDWAAQEPHRHSIFTPETNPRAGLEKNYCRNPDGDVGGPWCYTTNPRKLYDYCDVPQCAAPSFDCGKPQVEPKKCPGR
# Plasmin light chain B: VVGGCVAHPHSWPWQVSLRTRFGMHFCGGTLISPEWVLTAAHCLEKSPRPSSYKVILGAHQEVNLEPHVQEIEVSRLFLEPTRKDIALLKLSSPAVITDKVIPACLPSPNYVVADRTECFITGWGETQGTFGAGLLKEAQLPVIENKVCNRYEFLNGRVQSTELCAGHLAGGTDSCQGDSGGPLVCFEKDKYILQGVTSWGLGCARPNKPGVYVRVSRFVTWIEGVMRNN
# modifications: Plasmin
# System: vitreoretinal interface
# Settings: rabbit eyes
molecule,measurement,setting,value
B1,posterior vitreous detachment (PVD) in eyes treated with plasmin,plasmin treatment,some areas of PVD
same,detachment of the vitreous after plasmin treatment and vitrectomy,plasmin treatment with subsequent vitrectomy,substantially detached
